Assay results reported in PMC9482650, “Quantitative fragmentomics allow affinity mapping of interactomes” (Nature Communications, 2022).

T1: APBA2_2, Q99767
T1 sequence (Q99767 654-744, limits assumed, looked up): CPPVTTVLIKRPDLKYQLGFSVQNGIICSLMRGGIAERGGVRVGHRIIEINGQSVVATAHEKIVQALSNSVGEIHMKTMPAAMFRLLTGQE

T2: CARD11, Q9BXL7
T2 sequence (Q9BXL7 662-765, limits assumed, looked up): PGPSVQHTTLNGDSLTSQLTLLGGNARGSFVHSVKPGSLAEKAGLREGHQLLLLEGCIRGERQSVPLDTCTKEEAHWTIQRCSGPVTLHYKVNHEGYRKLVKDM

T3: APBA1_1, Q02410
T3 sequence (Q02410 651-752, limits assumed, looked up): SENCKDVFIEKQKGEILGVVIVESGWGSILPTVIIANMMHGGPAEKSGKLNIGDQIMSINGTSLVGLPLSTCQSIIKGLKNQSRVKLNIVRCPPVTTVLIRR

T4: MPDZ_5, O75970
T4 sequence (O75970 695-796, limits assumed, looked up): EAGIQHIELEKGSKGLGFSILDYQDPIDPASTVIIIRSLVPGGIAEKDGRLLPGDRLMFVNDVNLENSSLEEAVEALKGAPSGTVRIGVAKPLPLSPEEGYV

T5: GRIP1_2, Q9Y3R0
T5 sequence (Q9Y3R0 145-248, limits assumed, looked up): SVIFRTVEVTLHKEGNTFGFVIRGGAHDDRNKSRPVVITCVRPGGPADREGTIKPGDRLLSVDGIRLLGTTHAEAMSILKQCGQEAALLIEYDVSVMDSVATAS

T6: SNTB1, Q13884
T6 sequence (Q13884 107-205, limits assumed, looked up): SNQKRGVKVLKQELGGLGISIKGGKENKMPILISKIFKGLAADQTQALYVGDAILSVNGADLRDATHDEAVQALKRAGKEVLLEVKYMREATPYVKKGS

T7: ARHGEF11, O15085
T7 sequence (O15085 42-136, limits assumed, looked up): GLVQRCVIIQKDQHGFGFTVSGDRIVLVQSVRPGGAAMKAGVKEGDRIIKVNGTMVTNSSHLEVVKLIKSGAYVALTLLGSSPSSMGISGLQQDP

T8: TX1BP3, O14907
T8 sequence (O14907 10-122, limits assumed, looked up): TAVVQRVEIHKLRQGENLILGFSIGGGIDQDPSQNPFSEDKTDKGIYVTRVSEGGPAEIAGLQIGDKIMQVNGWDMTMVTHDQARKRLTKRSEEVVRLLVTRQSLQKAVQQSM

T9: LNX2_2, Q8N448
T9 sequence (Q8N448 334-432, limits assumed, looked up): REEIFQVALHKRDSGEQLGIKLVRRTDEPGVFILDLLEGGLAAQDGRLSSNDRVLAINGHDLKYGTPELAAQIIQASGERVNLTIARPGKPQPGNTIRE

T10: MPP2, Q14168
T10 sequence (Q14168 180-250, limits assumed, looked up): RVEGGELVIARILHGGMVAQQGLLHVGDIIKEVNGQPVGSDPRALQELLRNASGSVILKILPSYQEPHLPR

T11: DLG3_1, Q92796
T11 sequence (Q92796 125-227, limits assumed, looked up): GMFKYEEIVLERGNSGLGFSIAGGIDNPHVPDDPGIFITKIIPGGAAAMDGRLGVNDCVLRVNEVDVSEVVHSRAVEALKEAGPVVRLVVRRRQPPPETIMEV

T12: RADIL, Q96JH8
T12 sequence (Q96JH8 971-1071, limits assumed, looked up): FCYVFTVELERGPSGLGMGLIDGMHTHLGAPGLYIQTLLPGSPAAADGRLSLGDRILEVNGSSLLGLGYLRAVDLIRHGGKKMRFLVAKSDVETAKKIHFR


How the values were obtained:
Assay in all cases: holdup assay
Set-up in all cases: key: below the threshold = too weak to quantify, mostly under pKd 3.1 to 4
Conditions in all cases: plain residues with an end cap or a label only (N-terminal biotin on a linker: ado-ado)
LNX1_2, Q8TBB1 = biological target: LNX1_2, Q8TBB1
LNX1_2, Q8TBB1, sequence (Q8TBB1 371-470): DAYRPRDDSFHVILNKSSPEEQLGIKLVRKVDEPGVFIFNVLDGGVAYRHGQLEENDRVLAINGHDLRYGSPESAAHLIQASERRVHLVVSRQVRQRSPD

APBA2_2, Q99767 = biological target: T1, APBA2_2, Q99767
CARD11, Q9BXL7 = biological target: T2, CARD11, Q9BXL7
APBA1_1, Q02410 = biological target: T3, APBA1_1, Q02410
MPDZ_5, O75970 = biological target: T4, MPDZ_5, O75970
GRIP1_2, Q9Y3R0 = biological target: T5, GRIP1_2, Q9Y3R0
Inadl_10, Q8NI35 = biological target: Inadl_10, Q8NI35
Inadl_10, Q8NI35, sequence (Q8NI35 1673-1763): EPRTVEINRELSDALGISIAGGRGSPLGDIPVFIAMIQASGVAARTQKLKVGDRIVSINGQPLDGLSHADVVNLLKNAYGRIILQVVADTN

DLG1_1, Q12959 = biological target: DLG1_1, Q12959
SNTB1, Q13884 = biological target: T6, SNTB1, Q13884
ARHGEF11, O15085 = biological target: T7, ARHGEF11, O15085
MAGI3_2, Q5TCQ9 = biological target: MAGI3_2, Q5TCQ9
MAGI3_2, Q5TCQ9, sequence (Q5TCQ9 398-503): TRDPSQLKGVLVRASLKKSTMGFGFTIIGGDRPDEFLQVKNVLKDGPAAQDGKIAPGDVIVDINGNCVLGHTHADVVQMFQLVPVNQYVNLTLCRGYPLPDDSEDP

PICK1, Q9NRD5 = biological target: PICK1, Q9NRD5
PICK1, Q9NRD5, sequence (Q9NRD5 17-115): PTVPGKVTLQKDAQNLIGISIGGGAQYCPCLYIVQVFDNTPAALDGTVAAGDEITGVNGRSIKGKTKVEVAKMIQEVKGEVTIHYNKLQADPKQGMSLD

TJP1_2, Q07157 = biological target: TJP1_2, Q07157
TJP1_2, Q07157, sequence (Q07157 181-274): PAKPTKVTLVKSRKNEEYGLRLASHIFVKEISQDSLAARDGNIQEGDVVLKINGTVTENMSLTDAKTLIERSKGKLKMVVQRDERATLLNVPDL

TX1BP3, O14907 = biological target: T8, TX1BP3, O14907
TJP2_1, Q9UDY2 = biological target: TJP2_1, Q9UDY2
TJP2_1, Q9UDY2, sequence (Q9UDY2 24-128): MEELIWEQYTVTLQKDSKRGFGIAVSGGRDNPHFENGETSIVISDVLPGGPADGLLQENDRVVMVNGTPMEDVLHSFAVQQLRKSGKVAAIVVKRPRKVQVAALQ

LNX2_2, Q8N448 = biological target: T9, LNX2_2, Q8N448
PDZRN4_1, Q6ZMN7 = biological target: PDZRN4_1, Q6ZMN7
PDZRN4_1, Q6ZMN7, sequence (Q6ZMN7 213-318): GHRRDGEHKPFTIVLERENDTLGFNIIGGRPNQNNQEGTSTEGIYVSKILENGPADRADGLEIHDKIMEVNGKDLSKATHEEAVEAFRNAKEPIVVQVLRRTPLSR

MPP2, Q14168 = biological target: T10, MPP2, Q14168
DLG2_3, Q15700 = biological target: DLG2_3, Q15700
MAGI2_4, Q86UL8 = biological target: MAGI2_4, Q86UL8
MAGI2_4, Q86UL8, sequence (Q86UL8 772-865): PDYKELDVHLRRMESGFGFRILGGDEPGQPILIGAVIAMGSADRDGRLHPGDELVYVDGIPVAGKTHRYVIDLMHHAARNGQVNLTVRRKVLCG

DLG1_3, Q12959 = biological target: DLG1_3, Q12959
LAP2, Q96RT1 = biological target: LAP2, Q96RT1
LAP2, Q96RT1, sequence (Q96RT1 other isoform, or with tags, fused parts or gaps): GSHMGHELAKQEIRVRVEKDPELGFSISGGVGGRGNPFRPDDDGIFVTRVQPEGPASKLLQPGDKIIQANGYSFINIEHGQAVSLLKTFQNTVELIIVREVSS

DLG3_1, Q92796 = biological target: T11, DLG3_1, Q92796
AHNAK1, Q09666 = biological target: AHNAK1, Q09666
AHNAK1, Q09666, sequence (Q09666 4-100): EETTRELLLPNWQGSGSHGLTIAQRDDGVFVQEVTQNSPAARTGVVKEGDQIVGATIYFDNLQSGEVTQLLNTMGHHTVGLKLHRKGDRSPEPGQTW

DLG4_2, P78352 = biological target: DLG4_2, P78352
DLG4_2, P78352, sequence (P78352 155-259): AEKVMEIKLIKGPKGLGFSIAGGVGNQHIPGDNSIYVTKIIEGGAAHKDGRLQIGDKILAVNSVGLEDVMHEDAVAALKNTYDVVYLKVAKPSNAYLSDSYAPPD

RADIL, Q96JH8 = biological target: T12, RADIL, Q96JH8

| pKd (LNX1_2, Q8TBB1) | pKd (APBA2_2, Q99767) | pKd (CARD11, Q9BXL7) | pKd (APBA1_1, Q02410) | pKd (MPDZ_5, O75970) | pKd (GRIP1_2, Q9Y3R0) | pKd (Inadl_10, Q8NI35) | pKd (DLG1_1, Q12959) | pKd (SNTB1, Q13884) | pKd (ARHGEF11, O15085) | pKd (MAGI3_2, Q5TCQ9) | pKd (PICK1, Q9NRD5) | pKd (TJP1_2, Q07157) | pKd (TX1BP3, O14907) | pKd (TJP2_1, Q9UDY2) | pKd (LNX2_2, Q8N448) | pKd (PDZRN4_1, Q6ZMN7) | pKd (MPP2, Q14168) | pKd (DLG2_3, Q15700) | pKd (MAGI2_4, Q86UL8) | Binder | other results |
| --- | --- | --- | --- | --- | --- | --- | --- | --- | --- | --- | --- | --- | --- | --- | --- | --- | --- | --- | --- | --- | --- |
| below the threshold | below the threshold | below the threshold | below the threshold | below the threshold | below the threshold | below the threshold | below the threshold | below the threshold | 3.92 | below the threshold | below the threshold | below the threshold | below the threshold | below the threshold | below the threshold | below the threshold | below the threshold | below the threshold | 3.71 | TPPAAKKSRI [BAZ1A, Q9NRL2] | pKd (DLG1_3, Q12959): 3.81; pKd (LAP2, Q96RT1): below the threshold; pKd (DLG3_1, Q92796): 3.53; pKd (AHNAK1, Q09666): below the threshold; pKd (DLG4_2, P78352): 3.85; pKd (RADIL, Q96JH8): below the threshold |
| below the threshold | below the threshold | below the threshold | below the threshold | below the threshold | below the threshold | below the threshold | below the threshold | 5.22 | below the threshold | below the threshold | 3.95 | below the threshold | 3.53 | below the threshold | below the threshold | 4.83 | below the threshold | 3.77 | below the threshold | NLSIEKETKL [ASNSD1, Q9NWL6] | pKd (DLG1_3, Q12959): 3.53; pKd (LAP2, Q96RT1): 3.52; pKd (DLG3_1, Q92796): below the threshold; pKd (AHNAK1, Q09666): below the threshold; pKd (DLG4_2, P78352): 3.54; pKd (RADIL, Q96JH8): below the threshold |
| below the threshold | below the threshold | below the threshold | below the threshold | below the threshold | below the threshold | below the threshold | 4.11 | below the threshold | 4.29 | 4.16 | below the threshold | below the threshold | 4.22 | below the threshold | below the threshold | below the threshold | below the threshold | 3.57 | 3.79 | VNKSKLLTDV [KCNA1, Q09470] | pKd (DLG1_3, Q12959): below the threshold; pKd (LAP2, Q96RT1): below the threshold; pKd (DLG3_1, Q92796): 3.66; pKd (AHNAK1, Q09666): below the threshold; pKd (DLG4_2, P78352): 4.43; pKd (RADIL, Q96JH8): below the threshold |
| below the threshold | below the threshold | below the threshold | 3.48 | below the threshold | below the threshold | below the threshold | 4.23 | 5.07 | below the threshold | 4.37 | below the threshold | below the threshold | below the threshold | below the threshold | below the threshold | 4.18 | below the threshold | 4.17 | below the threshold | SKENVQETQI [LRRC4B, Q9NT99] | pKd (DLG1_3, Q12959): 3.77; pKd (LAP2, Q96RT1): 3.69; pKd (DLG3_1, Q92796): 3.73; pKd (AHNAK1, Q09666): below the threshold; pKd (DLG4_2, P78352): 4.55; pKd (RADIL, Q96JH8): below the threshold |
| below the threshold | below the threshold | below the threshold | below the threshold | below the threshold | below the threshold | 3.59 | below the threshold | below the threshold | 3.7 | below the threshold | 4.17 | below the threshold | 4.15 | below the threshold | below the threshold | below the threshold | below the threshold | below the threshold | 3.63 | EVNETDDTKM [KCNJ1, P48048] | pKd (DLG1_3, Q12959): below the threshold; pKd (LAP2, Q96RT1): 3.5; pKd (DLG3_1, Q92796): below the threshold; pKd (AHNAK1, Q09666): below the threshold; pKd (DLG4_2, P78352): 3.59; pKd (RADIL, Q96JH8): 3.56 |
